In this assay the target is RedM, N,N-dimethyltransferase of the reductasporine biosynthetic pathway. The assay can be described thus: SEC; size-exclusion chromatography of purified RedM in solution (Fig. S3); conditions of this run not shown.

For “RedM, N,N-dimethyltransferase of the reductasporine biosynthetic pathway (enzyme)”, the stoichiometry N (commonly the number of molecules, sites or subunits per partner or assembly) was found to be 2.

These data come from publication PMC10784701.
